Measured values as given in the MegaScale stability set (Tsuboyama et al. 2023).

B1: EEHEE_rd3_1049 (parent)
chain: TTVKLGDIKVTFDNPEKAKKYAQKLAKIYQLTVHVHGDTIHVK

Variants of: B1
Assay: folding stability dG (cDNA display proteolysis); higher = more stable
Details: PBS, room temperature
With TTVKLGDIKVTFDNPEKAKKYAQPLAKIYQLTVHVHGDTIHVK the “folding stability dG” value was -0.36 kcal/mol. In the case of TTVKLGDIKVTFDNPEKAKKYAQTLAKIYQLTVHVHGDTIHVK, the “folding stability dG” value is reported as 1.83 kcal/mol. In the case of TTVKLGDIKVTFDNPEKAKKYAQRLAKIYQLTVHVHGDTIHVK, the “folding stability dG” value is reported as 2.17 kcal/mol. For TTVKLGDIKVTFDNPEKAKKNAQKLAKIYQLTVHVHGDTIHVK, the “folding stability dG” value was -0.383 kcal/mol. With TTVKLGDIKVTFDNPEKAKKHAQKLAKIYQLTVHVHGDTIHVK the “folding stability dG” value was 0.523 kcal/mol. In the case of TTVKLGDIKVTFDNPEKAKKTAQKLAKIYQLTVHVHGDTIHVK, the “folding stability dG” value is reported as 0.282 kcal/mol. In the case of TTVKLGDIKVTFDNPEKAKKQAQKLAKIYQLTVHVHGDTIHVK, the “folding stability dG” value is reported as -0.123 kcal/mol. With TTVKLGDIKVTFDNPEKAKKKAQKLAKIYQLTVHVHGDTIHVK the “folding stability dG” value was -0.234 kcal/mol. In the case of TTVKLGDIKVTFDNPEKAKKVAQKLAKIYQLTVHVHGDTIHVK, the “folding stability dG” value is reported as 0.867 kcal/mol. In the case of TTVKLGDIKVTFDNPEKAKKPAQKLAKIYQLTVHVHGDTIHVK, the “folding stability dG” value is reported as -0.648 kcal/mol. In the case of TTVKLGDIKVTFDNPEKAKKDAQKLAKIYQLTVHVHGDTIHVK, the “folding stability dG” value is reported as -0.407 kcal/mol. With TTVKLGDIKVTFDNPEKAKKCAQKLAKIYQLTVHVHGDTIHVK the “folding stability dG” value was 2.04 kcal/mol. For TTVKLGDIKVTFDNPEKAKKIAQKLAKIYQLTVHVHGDTIHVK, the “folding stability dG” value was 0.827 kcal/mol. With TTVKLGDIKVTFDNPEKAKKRAQKLAKIYQLTVHVHGDTIHVK the “folding stability dG” value was 0.268 kcal/mol. With TTVKLGDIKVTFDNPEKAKKMAQKLAKIYQLTVHVHGDTIHVK the “folding stability dG” value was 0.885 kcal/mol. With TTVKLGDIKVTFDNPEKAKKAAQKLAKIYQLTVHVHGDTIHVK the “folding stability dG” value was 0.651 kcal/mol. With TTVKLGDIKVTFDNPEKAKKLAQKLAKIYQLTVHVHGDTIHVK the “folding stability dG” value was 1.15 kcal/mol. For TTVKLGDIKVTFDNPEKAKKGAQKLAKIYQLTVHVHGDTIHVK, the “folding stability dG” value was -0.676 kcal/mol. With TTVKLGDIKVTFDNPEKAKKEAQKLAKIYQLTVHVHGDTIHVK the “folding stability dG” value was -0.031 kcal/mol. For TTVKLGDIKVTFDNPEKAKKWAQKLAKIYQLTVHVHGDTIHVK, the “folding stability dG” value was 2.22 kcal/mol. With TTVKLGDIKVTFDNPEKAKKFAQKLAKIYQLTVHVHGDTIHVK the “folding stability dG” value was 2.36 kcal/mol. In the case of TTVKLGDIKVTFDNPEKAKKSAQKLAKIYQLTVHVHGDTIHVK, the “folding stability dG” value is reported as -0.364 kcal/mol. In the case of TTVKLGDIKVTFDNPEKAGKYAQKLAKIYQLTVHVHGDTIHVK, the “folding stability dG” value is reported as 0.985 kcal/mol. With TTVKLGDIKVTFDNPEKARKYAQKLAKIYQLTVHVHGDTIHVK the “folding stability dG” value was 2.23 kcal/mol. In the case of TTVKLGDIKVTFDNPEKASKYAQKLAKIYQLTVHVHGDTIHVK, the “folding stability dG” value is reported as 1.49 kcal/mol. For TTVKLGDIKVTFDNPEKALKYAQKLAKIYQLTVHVHGDTIHVK, the “folding stability dG” value was 3.31 kcal/mol. In the case of TTVKLGDIKVTFDNPEKAHKYAQKLAKIYQLTVHVHGDTIHVK, the “folding stability dG” value is reported as 2.14 kcal/mol. For TTVKLGDIKVTFDNPEKAPKYAQKLAKIYQLTVHVHGDTIHVK, the “folding stability dG” value was -0.502 kcal/mol. With TTVKLGDIKVTFDNPEKAFKYAQKLAKIYQLTVHVHGDTIHVK the “folding stability dG” value was 2.93 kcal/mol. In the case of TTVKLGDIKVTFDNPEKAMKYAQKLAKIYQLTVHVHGDTIHVK, the “folding stability dG” value is reported as 3.54 kcal/mol. For TTVKLGDIKVTFDNPEKAWKYAQKLAKIYQLTVHVHGDTIHVK, the “folding stability dG” value was 3.16 kcal/mol. For TTVKLGDIKVTFDNPEKANKYAQKLAKIYQLTVHVHGDTIHVK, the “folding stability dG” value was 1.64 kcal/mol. With TTVKLGDIKVTFDNPEKAQKYAQKLAKIYQLTVHVHGDTIHVK the “folding stability dG” value was 1.89 kcal/mol. For TTVKLGDIKVTFDNPEKAIKYAQKLAKIYQLTVHVHGDTIHVK, the “folding stability dG” value was 2.54 kcal/mol. With TTVKLGDIKVTFDNPEKAVKYAQKLAKIYQLTVHVHGDTIHVK the “folding stability dG” value was 1.97 kcal/mol. With TTVKLGDIKVTFDNPEKAYKYAQKLAKIYQLTVHVHGDTIHVK the “folding stability dG” value was 2.9 kcal/mol. With TTVKLGDIKVTFDNPEKACKYAQKLAKIYQLTVHVHGDTIHVK the “folding stability dG” value was 3.38 kcal/mol. In the case of TTVKLGDIKVTFDNPEKAEKYAQKLAKIYQLTVHVHGDTIHVK, the “folding stability dG” value is reported as 1.47 kcal/mol. In the case of TTVKLGDIKVTFDNPEKAAKYAQKLAKIYQLTVHVHGDTIHVK, the “folding stability dG” value is reported as 1.9 kcal/mol. With TTVKLGDIKVTFDNPEKADKYAQKLAKIYQLTVHVHGDTIHVK the “folding stability dG” value was 0.873 kcal/mol. With TTVKLGDIKVTFDNPEKATKYAQKLAKIYQLTVHVHGDTIHVK the “folding stability dG” value was 1.55 kcal/mol. In the case of TTVKLGDIKVTFDNPEKAKKYTQKLAKIYQLTVHVHGDTIHVK, the “folding stability dG” value is reported as 0.394 kcal/mol. With TTVKLGDIKVTFDNPEKAKKYLQKLAKIYQLTVHVHGDTIHVK the “folding stability dG” value was 1.47 kcal/mol. In the case of TTVKLGDIKVTFDNPEKAKKYMQKLAKIYQLTVHVHGDTIHVK, the “folding stability dG” value is reported as 1.07 kcal/mol. In the case of TTVKLGDIKVTFDNPEKAKKYYQKLAKIYQLTVHVHGDTIHVK, the “folding stability dG” value is reported as 0.937 kcal/mol. In the case of TTVKLGDIKVTFDNPEKAKKYVQKLAKIYQLTVHVHGDTIHVK, the “folding stability dG” value is reported as 1.34 kcal/mol. With TTVKLGDIKVTFDNPEKAKKYRQKLAKIYQLTVHVHGDTIHVK the “folding stability dG” value was 0.612 kcal/mol. With TTVKLGDIKVTFDNPEKAKKYQQKLAKIYQLTVHVHGDTIHVK the “folding stability dG” value was 0.388 kcal/mol. For TTVKLGDIKVTFDNPEKAKKYWQKLAKIYQLTVHVHGDTIHVK, the “folding stability dG” value was 1.24 kcal/mol. With TTVKLGDIKVTFDNPEKAKKYSQKLAKIYQLTVHVHGDTIHVK the “folding stability dG” value was 0.584 kcal/mol. For TTVKLGDIKVTFDNPEKAKKYHQKLAKIYQLTVHVHGDTIHVK, the “folding stability dG” value was 0.262 kcal/mol. For TTVKLGDIKVTFDNPEKAKKYKQKLAKIYQLTVHVHGDTIHVK, the “folding stability dG” value was 0.531 kcal/mol. For TTVKLGDIKVTFDNPEKAKKYEQKLAKIYQLTVHVHGDTIHVK, the “folding stability dG” value was -0.139 kcal/mol. For TTVKLGDIKVTFDNPEKAKKYDQKLAKIYQLTVHVHGDTIHVK, the “folding stability dG” value was -0.543 kcal/mol. For TTVKLGDIKVTFDNPEKAKKYIQKLAKIYQLTVHVHGDTIHVK, the “folding stability dG” value was 1.48 kcal/mol. With TTVKLGDIKVTFDNPEKAKKYNQKLAKIYQLTVHVHGDTIHVK the “folding stability dG” value was 0.115 kcal/mol. In the case of TTVKLGDIKVTFDNPEKAKKYPQKLAKIYQLTVHVHGDTIHVK, the “folding stability dG” value is reported as -0.681 kcal/mol. For TTVKLGDIKVTFDNPEKAKKYGQKLAKIYQLTVHVHGDTIHVK, the “folding stability dG” value was 0.327 kcal/mol. With TTVKLGDIKVTFDNPEKAKKYFQKLAKIYQLTVHVHGDTIHVK the “folding stability dG” value was 1.08 kcal/mol.
